Experimental data taken from paper PMC4735555 (2016).

Biological target: 2N5.1 TCR
Assay: SPR; Mamu-B*098 loaded with C14nef5

B1: β2m-linked Mamu-B*098 protein (single-chain, refolded without C14nef5, biotinylated) (other)
chain: IQRTPKIQVYSRHPPENGKPNFLNCYVSGFHPSDIEVDLLKNGEKMGKVEHSDLSFSKDWSFYLLYYTEFTPNEKDEYACRVNHVTLSGPRTVKWDRDMGGGGSGGSGSGGGSSGSHSMRYFSTTVSRPGRGEPRFIVVGYVDDTQFVRFDSDAASPKMEPRAPWMEQEGPEYWEEQTRRVKDAAQTFRVSLGNLRGYYNQSEAGSHTLQTMSGCDLGPDGRLLRGYYQQAYDGRDYIALNEDLRSWTAADEAAQNTQRKWEAAGVAEQWRAYLEGECLESLRRYLENGKETLQRAEPPKTHVTHHPVSDHEATLRCWALGFYPAEITLTWQRDGEDQTQDTELVETRPGGDGTFQKWGAVVVPSGEEQRYTCHVQHEGLPEPLTLRWEPLHHILDAQKMVWNHR
modifications: biotin (BirA) on the biotinylation sequence peptide
- Kd: 2500 nM
